From article PMC6895282

Molecular target: TM52 (TetR-MphR hybrid regulator) (synthetic chimera of TetR and MphR; …, UniProt P04483 1-52+Q9EVJ6:56-194, internal_change)
Assay: EMSA

B1: TM52 operator fragment (hybrid tet operator, 2-bp spacer) (dsDNA)
DNA 1: GCGGTGATACTCCCTATCAGTTGATAGAGAGAGCACATCA
DNA 2: TGATGTGCTCTCTCTATCAACTGATAGGGAGTATCACCGC
binding result: binds
